Assay results: the supplement of paper PMC10724198
± gives the standard deviation of the averaged measurements.

test system: Saccharomyces cerevisiae; assay: protein stability index of tFT-peptide fusion (C-terminal peptide) (PSI (0-1 scale)); higher = more stable (slower turnover); conditions: genetic background: wild type; temperature: 30 C
Protocol: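 Multiplexed protein stability (MPS) profiling in S. cerevisiae. Random 12-aa peptides (tFT-X12 library) are fused to the C-terminus of a sfGFP-mCherry tandem fluorescent timer, after mCherry and a GGGS linker. Cells are FACS-sorted into 8 mCherry/sfGFP bins and deep-sequenced. The protein stability index (PSI) is the read-weighted bin average, scaled from 0 (unstable) to 1 (stable). Only peptides with >10 reads are reported; cells were grown at 30 °C in SC-His with glucose.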
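Also: PSI is a weighted mean of sequencing reads over stability bins, variants kept only with over 10 reads, mCherry proximal and sfGFP distal, peptide attached via GGGS linker.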

Sequence	protein stability index
ASQTTKAKNTGH	0.6688 ± 0.006
ATATPPAPPPSP	0.686 ± 0.011
ATLCVVSKLGLC	0.589 ± 0.0069
ATSPTPALPPLL	0.743 ± 0.14
ATVDLDLLSTCL	0.7 ± 0.02
ATVPLVTPLPHF	0.697 ± 0.042
AVAPPISTLLPV	0.743 ± 0.04
AVEVRATVWWWW	0.53259 ± 0.00014
AVFHPPPILPPP	0.70154 ± 0.00061
AVFWLRFSRISV	0.618 ± 0.0094
AVFYGRWRGVWE	0.859 ± 0.12
AVGARRRLEVGD	0.722 ± 0.016
AVGCLGKSRATL	0.662 ± 0.0088
AVGLGARHRVAW	0.688 ± 0.016
AVGLGPFGGSRG	0.695 ± 0.0095
AVGRSVVCINRA	0.686 ± 0.041
AVGVCGGGWWWA	0.792 ± 0.098
AVLERGLCCGEY	0.738 ± 0.031
AVLGGAGGGWAG	0.687 ± 0.12
AVLKDFDTKHLY	0.613 ± 0.024
AVMGQRQAESPV	0.693 ± 0.067
AVPGLPLWWQPS	0.746 ± 0.028
AVQSEFGVGFSM	0.736 ± 0.04
AVRELIRASGPG	0.642 ± 0.043
AVRVLLISSSGT	0.641 ± 0.031

Sequence	protein stability index
AVSFGSTLANWA	0.718 ± 0.062
AVSTYGAQAWNH	0.704 ± 0.018
AVVFCSIPCLRV	0.575 ± 0.052
AWDSVNDSDPPR	0.717 ± 0.035
AWEPGGVVAVLL	0.621 ± 0.14
AWGLKRSCRIKL	0.678 ± 0.051
AWNRFVNPRVWS	0.677 ± 0.03
AWRGFVALSFSR	0.695 ± 0.049
AWRGGSRKDVEG	0.7129 ± 0.001
AWRGLAPRFVLT	0.544 ± 0.01
AWSALWGAVSPY	0.7073 ± 0.0027
AWSVRVGGSATA	0.695 ± 0.033
AWVCSPSACGLV	0.834 ± 0.089
AYAPPSALPYPF	0.729 ± 0.0075
AYDIIPGKFKKI	0.652 ± 0.05
AYGGEWGDRGWL	0.688 ± 0.076
AYSPLFPPLLSL	0.649 ± 0.045
AYVFLPINKENR	0.6405 ± 0.0053
AYVHGSINPMQP	0.691 ± 0.011
AYVQPASRSPPP	0.735 ± 0.062
CAGLIDLVGDVS	0.654 ± 0.018
CARSFGLFGTAT	0.694 ± 0.075
CASACPPPPPAT	0.726 ± 0.019
CASGPLQPLPRA	0.753 ± 0.084
CAVGPQSSSCPR	0.56 ± 0.03

Sequence	protein stability index
CAVVSRYQPLSL	0.7092 ± 0.006
CAWRSVRLLIAH	0.506 ± 0.068
CCFHRLRYSRAV	0.647 ± 0.02
CCGGRTWFVCGV	0.699 ± 0.041
CCRANWDFPIPS	0.707 ± 0.027
CCRTMLGSLVRS	0.659 ± 0.012
CCVSLQSNLLFS	0.68 ± 0.026
CDLISPAHLVLG	0.678 ± 0.01
CDRPERRRTHVY	0.655 ± 0.041
CDSRLSGVFKFG	0.6816 ± 0.0026
CDVIGLVRVKRG	0.771 ± 0.047
CDWRSMEWRGCW	0.693 ± 0.0072
CFCGGFGVFVIF	0.593 ± 0.014
CFFFFIFSLFGL	0.515 ± 0.02
CFGRSPWLTINV	0.6171 ± 0.0046
CFIPLCPLSFCI	0.609 ± 0.016
CFLERLAFPGLY	0.633 ± 0.011
CFLSFLLFSSSP	0.558 ± 0.025
CFPPSLVPRPTY	0.673 ± 0.054
CFSRKGIRIKRP	0.734 ± 0.0098
CFVERRCFLLYR	0.562 ± 0.029
CFVSSSRFLSSF	0.692 ± 0.065
CGCVWVSYFFDK	0.655 ± 0.069
CGFLFPCSPSSK	0.689 ± 0.068
CGGCPGCDIHMG	0.655 ± 0.082

Sequence	protein stability index
CGGFGGLYVVVF	0.545 ± 0.014
CGGGGGLWLLEV	0.559 ± 0.015
CGGSLGAPVLVG	0.588 ± 0.042
CGGSWMRGLRDL	0.72 ± 0.043
CGILTWASSSLG	0.688 ± 0.034
CGLCLGGEWLVG	0.701 ± 0.026
CGLRGAGCLARD	0.637 ± 0.019
CGPGGFGGERVG	0.73 ± 0.058
CGRFGRGVDLGN	0.687 ± 0.02
CGRFVGEGGGKV	0.777 ± 0.1
CGRLSNAAEPTC	0.792 ± 0.19
CGRPRGGEPGGA	0.715 ± 0.078
CGVWHGFFGLWL	0.657 ± 0.12
CGVYGRVVEWGG	0.706 ± 0.042
CGWGVWGAKSGR	0.6289 ± 0.0049
CIFSMLLPPFSL	0.687 ± 0.0091
CIFWGSGWDTLV	0.728 ± 0.063
CIIIIGRHSIWG	0.672 ± 0.057
CKCKFLGLSATM	0.613 ± 0.013
CKRKGREEEEKE	0.7361 ± 0.0064
CLCITGIPVQGF	0.653 ± 0.064
CLCLCFLDYKAC	0.5731 ± 0.0051
CLCRAAGARRCG	0.694 ± 0.03
